Experimental data published in article doi:10.1101/2025.03.20.644338 (bioRxiv, 2025).

Experiments:
Assay in all cases: ITC
[1] = target: wild-type mouse Rbpj core (residues 53-474) (mouse, UniProt P31266 53-474)
[2] = target: mouse Rbpj core (residues 53-474) F92V variant (mouse, UniProt P31266 53-474, F92V)
[3] = target: mouse Rbpj core (residues 53-474) R91G variant (mouse, UniProt P31266 53-474, R91G)
[4] = target: mouse Rbpj core (residues 53-474) S358R variant (mouse, UniProt P31266 53-474, S358R)

Measured: binding result

Sequence of mouse Rbpj core (residues 53-474) S358R variant (P31266 53-474 S358R): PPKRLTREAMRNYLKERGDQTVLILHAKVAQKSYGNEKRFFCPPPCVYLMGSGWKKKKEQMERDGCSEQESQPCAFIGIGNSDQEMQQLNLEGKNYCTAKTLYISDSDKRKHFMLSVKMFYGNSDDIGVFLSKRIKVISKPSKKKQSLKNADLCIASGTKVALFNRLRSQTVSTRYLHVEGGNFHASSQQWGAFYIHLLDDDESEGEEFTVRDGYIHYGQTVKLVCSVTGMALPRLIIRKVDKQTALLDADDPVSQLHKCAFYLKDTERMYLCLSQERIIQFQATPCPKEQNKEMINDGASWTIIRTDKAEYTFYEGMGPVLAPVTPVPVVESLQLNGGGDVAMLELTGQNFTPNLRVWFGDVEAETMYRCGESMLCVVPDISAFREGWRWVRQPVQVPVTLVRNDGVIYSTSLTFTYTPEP
Sequence of mouse Rbpj core (residues 53-474) F92V variant (P31266 53-474 F92V): as the sequence (P31266 53-474 S358R) above, with F40V, R306S counted along it
Sequence of wild-type mouse Rbpj core (residues 53-474) (P31266 53-474): as the sequence (P31266 53-474 S358R) above, with R306S counted along it
Sequence of mouse Rbpj core (residues 53-474) R91G variant (P31266 53-474 R91G): as the sequence (P31266 53-474 S358R) above, with R39G, R306S counted along it

B1: peptide consisting of residues 1754-1781 of human NOTCH1 (peptide)
peptide: VLLSRKRRRQHGQLWFPEGFKVSEASKK
binds: [1] | [2] | [3] | [4]

B2: human SHARP residues 2776-2833 (domain or fragment)
chain: RASANENSRFHPGSMPVIDDRPADAGSGAGLRVNTSEGVVLLSYSGQKTEGPQRISAK
binds: [1] | [2] | [4]
